In one experiment the target is T1, 不含表位肽的载体蛋白(HBcAg) C149.
T1 construct: also called 载体蛋白C149; 突变型HBc
T1 chain: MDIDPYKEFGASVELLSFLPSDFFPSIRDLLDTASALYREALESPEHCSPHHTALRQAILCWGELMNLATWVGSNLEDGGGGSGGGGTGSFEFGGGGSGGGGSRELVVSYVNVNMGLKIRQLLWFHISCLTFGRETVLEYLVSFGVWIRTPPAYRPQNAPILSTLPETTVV
Nature of the experiment: Western blot. For orientation: In western blotting, separated proteins are transferred to a membrane and probed.

In experiment [1] the target is T2, 水痘-带状疱疹病毒(VZV) pOka毒株ORF9蛋白 (Varicella-Zoster Virus, pOka毒株, UniProt P09272 1-302).
T2 sequence: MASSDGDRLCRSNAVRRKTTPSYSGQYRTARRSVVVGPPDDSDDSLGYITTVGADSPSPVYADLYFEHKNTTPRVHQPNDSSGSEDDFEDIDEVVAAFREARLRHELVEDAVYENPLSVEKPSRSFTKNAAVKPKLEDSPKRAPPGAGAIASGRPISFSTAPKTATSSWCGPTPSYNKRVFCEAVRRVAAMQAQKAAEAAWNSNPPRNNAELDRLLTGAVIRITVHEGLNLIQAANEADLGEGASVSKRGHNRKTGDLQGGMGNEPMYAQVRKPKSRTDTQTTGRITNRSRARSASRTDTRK
Nature of the experiment: cell-based or functional assay.

The next experiment deals with T3, 融合蛋白VZV-ORF9-F1.
T3 construct: Expressed in E. coli, forms virus-like particles; Run on SDS-PAGE for the Western blot
T3 chain: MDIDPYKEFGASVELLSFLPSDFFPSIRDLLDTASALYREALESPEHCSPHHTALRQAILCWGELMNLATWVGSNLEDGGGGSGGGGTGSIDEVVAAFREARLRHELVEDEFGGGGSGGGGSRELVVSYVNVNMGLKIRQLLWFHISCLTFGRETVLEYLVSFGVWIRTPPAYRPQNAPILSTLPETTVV
Nature of the experiment: Western blot, antibody at 2μg/mL.

Another experiment has as its target T4, VZV-ORF9-肽9 (Varicella-Zoster Virus, pOka毒株).
T4 construct: Synthetic 20-mer of ORF9; also called 91-110aa
T4 peptide: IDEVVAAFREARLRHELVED
Nature of the experiment: indirect ELISA, peptide coated at 1μg/孔.

For the next experiment, the target named is T5, 融合蛋白VZV-ORF9-F2-1.
T5 chain: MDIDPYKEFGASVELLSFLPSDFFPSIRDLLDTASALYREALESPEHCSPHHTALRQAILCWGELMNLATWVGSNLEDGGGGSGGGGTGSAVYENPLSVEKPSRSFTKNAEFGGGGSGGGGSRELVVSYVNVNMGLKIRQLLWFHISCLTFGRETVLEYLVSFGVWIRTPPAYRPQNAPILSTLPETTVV
Put plainly: Western blot, antibody at 2μg/mL.

Another experiment concerns the target T6, 融合蛋白VZV-ORF9-F2-2.
T6 chain: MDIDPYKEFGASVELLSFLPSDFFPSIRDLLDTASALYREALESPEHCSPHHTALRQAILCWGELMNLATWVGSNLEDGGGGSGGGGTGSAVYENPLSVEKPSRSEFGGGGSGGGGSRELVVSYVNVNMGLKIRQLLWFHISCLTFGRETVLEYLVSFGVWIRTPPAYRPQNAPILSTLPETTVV
Put plainly: Western blot, antibody at 2μg/mL.

For a further experiment, the target named is T7, 融合蛋白VZV-ORF9-F2-3.
T7 chain: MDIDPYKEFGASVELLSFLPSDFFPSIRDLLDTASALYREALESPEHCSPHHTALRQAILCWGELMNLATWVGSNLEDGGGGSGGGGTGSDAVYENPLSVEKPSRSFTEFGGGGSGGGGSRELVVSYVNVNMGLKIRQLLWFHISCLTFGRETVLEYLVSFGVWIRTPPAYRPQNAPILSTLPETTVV
Nature of the experiment: Western blot, antibody at 2μg/mL.

For the next experiment, the target named is T8, 融合蛋白VZV-ORF9-F2-4.
T8 chain: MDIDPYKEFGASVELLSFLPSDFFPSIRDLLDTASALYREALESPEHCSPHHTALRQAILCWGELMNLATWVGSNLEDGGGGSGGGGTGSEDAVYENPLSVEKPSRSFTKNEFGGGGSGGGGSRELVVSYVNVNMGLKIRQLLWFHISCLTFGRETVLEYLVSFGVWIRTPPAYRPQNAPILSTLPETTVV
Put plainly: Western blot, antibody at 2μg/mL.

For a further experiment, the target named is T9, 融合蛋白VZV-ORF9-F2-5.
T9 chain: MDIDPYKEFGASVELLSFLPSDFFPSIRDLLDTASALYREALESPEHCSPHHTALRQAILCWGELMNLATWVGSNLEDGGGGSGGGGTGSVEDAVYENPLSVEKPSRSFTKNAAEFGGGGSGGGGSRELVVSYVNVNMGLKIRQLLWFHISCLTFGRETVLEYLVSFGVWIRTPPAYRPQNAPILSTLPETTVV
Put plainly: Western blot, antibody at 2μg/mL.

The next experiment addresses T10, 融合蛋白VZV-ORF9-F2-6.
T10 chain: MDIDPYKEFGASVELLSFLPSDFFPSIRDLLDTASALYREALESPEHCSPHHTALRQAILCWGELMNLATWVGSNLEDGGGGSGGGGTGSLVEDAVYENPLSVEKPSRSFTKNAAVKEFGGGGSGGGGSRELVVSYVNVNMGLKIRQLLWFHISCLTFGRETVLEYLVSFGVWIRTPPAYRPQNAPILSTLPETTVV
Put plainly: Western blot, antibody at 2μg/mL.

For the next experiment, the target named is T11, 融合蛋白VZV-ORF9-F2-7.
T11 chain: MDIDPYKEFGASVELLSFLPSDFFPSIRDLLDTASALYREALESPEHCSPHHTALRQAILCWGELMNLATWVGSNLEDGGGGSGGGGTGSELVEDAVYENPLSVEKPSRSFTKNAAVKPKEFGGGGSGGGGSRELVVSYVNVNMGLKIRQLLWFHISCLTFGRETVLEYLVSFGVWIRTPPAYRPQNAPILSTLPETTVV
Put plainly: Western blot, antibody at 2μg/mL.

Another experiment addresses T12, 融合蛋白VZV-ORF9-F2-8.
T12 chain: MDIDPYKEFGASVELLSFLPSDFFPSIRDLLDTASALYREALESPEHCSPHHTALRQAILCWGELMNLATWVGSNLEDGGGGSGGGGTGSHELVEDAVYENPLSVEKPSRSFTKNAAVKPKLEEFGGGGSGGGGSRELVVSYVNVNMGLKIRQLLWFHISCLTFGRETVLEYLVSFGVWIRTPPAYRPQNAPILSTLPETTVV
Put plainly: Western blot, antibody at 2μg/mL.

Another experiment addresses T13, VZV-ORF9-肽11 (Varicella-Zoster Virus, pOka毒株).
T13 construct: Synthetic 20-mer of ORF9; also called 111-130aa
T13 peptide: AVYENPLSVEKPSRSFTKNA
Put plainly: indirect ELISA, peptide coated at 1μg/孔.

The next experiment deals with T14, 融合蛋白VZV-ORF9-F3.
T14 chain: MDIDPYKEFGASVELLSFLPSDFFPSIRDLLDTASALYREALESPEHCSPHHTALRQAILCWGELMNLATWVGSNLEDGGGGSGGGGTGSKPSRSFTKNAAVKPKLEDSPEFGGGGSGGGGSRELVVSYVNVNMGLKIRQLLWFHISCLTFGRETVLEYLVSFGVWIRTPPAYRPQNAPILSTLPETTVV
Put plainly: Western blot, antibody at 2μg/mL.

In a further experiment the target is T15, VZV-ORF9-肽12 (Varicella-Zoster Virus, pOka毒株).
T15 construct: Synthetic 20-mer of ORF9; also called 121-140aa
T15 peptide: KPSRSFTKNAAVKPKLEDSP
Nature of the experiment: indirect ELISA, peptide coated at 1μg/孔.

B1: 抗VZV ORF9中和性单克隆抗体4E9 (antibody, IgG1, V domains shown)
VH: QVQLQQSGAELMKPGASVKISCKATGYTFSRYWIEWVKLRPGHGLDWIGEILPGSKTNYNEKFKGKATFTADTSSNTAYMQLSSLTSEDSAVYYCAREGFVYWGQGTLVTVSA
VL: DIKMTQSPSSMYASLGERVTITCKASQDINSYLSWLQQKPGKSPKTLIYRANRLVDGVPSRFSGSGSGQDYSLTISSLEYEDMGIYYCLQFDEFPYTFGGGTKLEI
notes: also called 单抗4E9
In the case of B1, the binding result with 不含表位肽的载体蛋白(HBcAg) C149 is “no binding (tested: 2μg/mL)”; in the experiment with 融合蛋白VZV-ORF9-F1, “binds”; with VZV-ORF9-肽9 it was “binds”. Also, in [1], the “中和效价 (ELISPOT中和实验, VZV pOka, ARPE-19细胞)” value is 16 dilution 1:x of the 1 mg/mL stock.

B2: 抗VZV ORF9中和性单克隆抗体4E8 (antibody, IgG1, V domains shown)
VH: QVQLQQSGPELVKPGASVKMSCKTSGYTFTDDVISWVKQRTGQGLEWIGEINPGSGSIYYNEKFKGKATLTADKSSTTAYMQLSSLTSEDSAVYFCARSQYWGQGTTLTVSS
VL: DVVMTQTPLSLPVSLGDQASISCRSSQSLVHSNGNTYLHWYLQKPGQSPKLLIYKVSNRFSGVPDRFSGSGSGTDFTLKISRVEAEDLGVYFCSQSTHVPLTFGAGTKLELK
notes: also called 单抗4E8
With B2, the binding result with 不含表位肽的载体蛋白(HBcAg) C149 was “no binding (tested: 2μg/mL)”; with 融合蛋白VZV-ORF9-F2-1, “binds”; with 融合蛋白VZV-ORF9-F2-2 it was “binds”; in the experiment with 融合蛋白VZV-ORF9-F2-3, “binds”; in the experiment with 融合蛋白VZV-ORF9-F2-4 it was “binds”; with 融合蛋白VZV-ORF9-F2-5, “binds”. Moreover, the binding result in the experiment with 融合蛋白VZV-ORF9-F2-6, with 融合蛋白VZV-ORF9-F2-7, with 融合蛋白VZV-ORF9-F2-8 and with VZV-ORF9-肽11 was “binds” throughout. Also, in experiment [1], the “中和效价 (ELISPOT中和实验, VZV pOka, ARPE-19细胞)” value is 32 dilution 1:x of the 1 mg/mL stock.

B3: 抗VZV ORF9中和性单克隆抗体13A7 (antibody, IgG1, V domains shown)
VH: QVQLQQSGAVLARPGASVKLSCKASGYTFTTYWVQWIKQRPGQGLEWIGTIYPGDGDARYAQKFKGKATLTATESSSTAYMQLSSLASEDSAVYYCSRREVYDDYAWFAYWGQGTLVTVSA
VL: QIVLSQSPAILSASPGEKVTMTCRASSSVHYMHWYQQKSGFSPKPWIYATSNLASGVPARFSGSESGTSYSLTISRVEAEDAATYFCQQWSTSPPTFGSGTKLEIK
notes: also called 单抗13A7
Consider B3, for which the binding result in the experiment with 不含表位肽的载体蛋白(HBcAg) C149 is “no binding (tested: 2μg/mL)”; in the experiment with 融合蛋白VZV-ORF9-F3, “binds”; with VZV-ORF9-肽12, “binds”. Also, the “中和效价 (ELISPOT中和实验, VZV pOka, ARPE-19细胞)” value in experiment [1] is 16 dilution 1:x of the 1 mg/mL stock.

(Values after patent publication CN117164676A (UNIV XIAMEN; BEIJING WANTAI BIOLOGICAL PHARMACY ENTPR CO LTD, dated 2023).)
